Source: the supplement of paper PMC7877785
± gives the uncertainty stated by the source.

Experiment: self-splicing fitness, log relative to wild type (ln ratio); higher = more splicing; Tetrahymena group I intron in knt gene, E. coli kanamycin selection, DiMSum; sequences stand for … in CUCUCU…GGAGGGAAAAGUUAUCAGGCAUGCACCUGGUAGCUAGUCUUUAAACCAAUAGAUUGCAUCGGUUUAAAAGGCAAGACCGUCAAAUUGCGGGAAAGGGGUCAACAGCCGUUCAGUACCAAGUCUCAGGGGAAACUUUGAGAUGGCCUUGCAAAGGGUAUGGUAAUAAGCUGACGGACAUGGUCCUAACCACGCAGCCAAGUCCUAAGUCAACAGAUCUUCUGUUGAUAUGGAUGCAGUUCACAGACUAAAUGUCGGUCGGGGAAGAUGUAUUCUUCUCAUAAGAUAUAGUCGGACCUCUCCUUAAUGGGAGCUAGCGGAUGAAGUGAUGCAACACUGGAGCCGCUGGGAACUAAUUUGUAUGCGAAAGUAUAUUGAUUAGUUUUGGAGUACUCGUGGUCG
Method in brief: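 Pooled colonies went to amplicon sequencing on an Illumina HiSeq 2500 after six replicate transformations. The plates were LB agar with 100 μg/mL carbenicillin, 50 μM IPTG and 0.2% rhamnose, with or without 25 μg/mL kanamycin, incubated overnight at 37°C or 30°C. The E. coli BL21(DE3) library had all eight P1ex-region intron nucleotides randomised, the intron placed in the knt kanamycin-resistance gene on pET-22b(+). DiMSum fitness is the error-weighted combination of replicate fold changes, kanamycin against none, normalised to wild type.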

Sequence	self-splicing fitness (ln) (30 °C)	self-splicing fitness (ln) (37 °C)
CGCAAGCAAUAUUACGGAAG	-1.03 ± 0.097	-1.44 ± 0.1
GGAAAGCAAUAUUACGCUAC	-1.91 ± 0.26	-1.86 ± 0.33
UAUAAGCAAUAUUACGGUUU	-2.58 ± 0.11	-1.24 ± 0.099
CCCUAGCAAUAUUACGGUGG	-4.27 ± 0.29	-1.93 ± 0.16
GCGAAGCAAUAUUACGCCAC		-2.24 ± 0.42
UUUUAGCAAUAUUACGGGUC	-3.73 ± 0.4	-2.96 ± 0.38
GCUGAGCAAUAUUACGUAUC	-2.37 ± 0.13	0.164 ± 0.1
CUCUAGCAAUAUUACGUUAG	-3.81 ± 0.24	-2.13 ± 0.22
UACAAGCAAUAUUACGAGAG	-3.24 ± 0.17	-2.65 ± 0.18
GCAAAGCAAUAUUACGGGAA	-2.43 ± 0.1	-0.474 ± 0.081
UUCGAGCAAUAUUACGGUCG		-1.91 ± 0.36
GCUAAGCAAUAUUACGUCCA	-1.94 ± 0.32	-0.684 ± 0.23
GUCGAGCAAUAUUACGUAGC	-1.18 ± 0.16	-0.606 ± 0.22
AACCAGCAAUAUUACGUUAG	-3.68 ± 0.11	-2.44 ± 0.11
CCCCAGCAAUAUUACGGGUC	-2.82 ± 0.11	-2.43 ± 0.16
UGGUAGCAAUAUUACGGUAU	-3.64 ± 0.32	-1.87 ± 0.4
GUCCAGCAAUAUUACGAGCG	-2.31 ± 0.14	-0.864 ± 0.15
CGCCAGCAAUAUUACGCGUU	-2.03 ± 0.12	-2.31 ± 0.19
CCCUAGCAAUAUUACGUUUC	-3.32 ± 0.17	-2.24 ± 0.19
UUAUAGCAAUAUUACGCAAA	-2.85 ± 0.22	-1.51 ± 0.16

Sequence	self-splicing fitness (ln) (30 °C)	self-splicing fitness (ln) (37 °C)
CCUGAGCAAUAUUACGUCCU	-4.5 ± 0.39	
UGCUAGCAAUAUUACGUGGU	-3.36 ± 0.22	-2.13 ± 0.24
UCGUAGCAAUAUUACGGCCA	-0.72 ± 0.13	-0.85 ± 0.16
UAGAAGCAAUAUUACGUUGG	-2.54 ± 0.14	-1.55 ± 0.14
GGUAAGCAAUAUUACGGCGA	-0.523 ± 0.11	-0.26 ± 0.13
ACAUAGCAAUAUUACGCUCA	-0.539 ± 0.11	-0.358 ± 0.12
AGGUAGCAAUAUUACGUUAC	-3.617 ± 0.033	-2.85 ± 0.048
AAUCAGCAAUAUUACGGCUU	0.103 ± 0.067	0.17 ± 0.077
CCCAAGCAAUAUUACGGAGG	-1.95 ± 0.22	
UCCGAGCAAUAUUACGGCAG	-3.55 ± 0.38	-1.44 ± 0.34
UUCCAGCAAUAUUACGAGAG	-1.82 ± 0.093	-0.571 ± 0.13
ACAUAGCAAUAUUACGCGUU	-3.55 ± 0.24	-2.39 ± 0.15
AAGAAGCAAUAUUACGCCCU	0.319 ± 0.11	0.0852 ± 0.12
GCGAAGCAAUAUUACGGGAG	-3.05 ± 0.17	-2.62 ± 0.22
GAACAGCAAUAUUACGAGCG	-1.94 ± 0.089	-0.559 ± 0.1
GCCAAGCAAUAUUACGAGUC	-1.58 ± 0.1	-1.1 ± 0.12
CGGGAGCAAUAUUACGUAAG	-1.46 ± 0.17	-0.321 ± 0.18
UUUUAGCAAUAUUACGGAGU	-2.29 ± 0.33	-1.95 ± 0.28
AAUAAGCAAUAUUACGCGGA	-2.57 ± 0.22	-1.33 ± 0.19
